Holding throughout (settings): remark: other sources report otherwise
Test [1] concerns the target recombinant soluble homotrimeric HA of A/duck/Yangzhou/02/2005 (H8N4) (Influenza A virus A/duck/Yangzhou/02/2005 (H8N4)). As to the kind of experiment: HA microarray, BCC supernatant.
Test [2] concerns the target recombinant soluble homotrimeric HA of A/Egypt/3300-NAMRU3/08 (H5N1) (Influenza A virus A/Egypt/3300-NAMRU3/2008 (H5N1)). Put plainly: HA microarray, BCC supernatant.
Test [3] concerns the target recombinant soluble homotrimeric HA of A/Wisconsin/67/05 (H3N2) (Influenza A virus A/Wisconsin/67/2005 (H3N2)). Put plainly: HA microarray, BCC supernatant.
In test [4] the target is recombinant soluble homotrimeric HA of A/Netherlands/219/03 (H7N7) (Influenza A virus A/Netherlands/219/03 (H7N7)). Put plainly: HA microarray, BCC supernatant.
For test [5], the target named is recombinant soluble homotrimeric HA of A/Anhui/1/05 (H5N1) (Influenza A virus A/Anhui/1/2005 (H5N1)). Put plainly: HA microarray, BCC supernatant.
For test [6], the target named is recombinant soluble homotrimeric HA of A/Indonesia/5/05 (H5N1) (Influenza A virus A/Indonesia/5/2005 (H5N1)). Put plainly: HA microarray, BCC supernatant.
For test [7], the target named is recombinant soluble homotrimeric HA of A/Hong Kong/2108/03 (H9N2) (Influenza A virus A/Hong Kong/2108/2003 (H9N2)). As to the kind of experiment: HA microarray, BCC supernatant.
Test [8] has as its target recombinant soluble homotrimeric HA of A/Solomon Islands/3/06 (H1N1) (Influenza A virus A/Solomon Islands/3/2006 (H1N1)). As to the kind of experiment: HA microarray, BCC supernatant.
For test [9], the target named is recombinant soluble homotrimeric HA of A/Japan/305/57 (H2N2) (Influenza A virus A/Japan/305/1957 (H2N2)). Put plainly: HA microarray, BCC supernatant.
For test [10], the target named is recombinant soluble homotrimeric HA of A/chicken/Vietnam/NCVD-016/08 (H5N1) (Influenza A virus A/chicken/Vietnam/NCVD-016/2008 (H5N1)). Put plainly: HA microarray, BCC supernatant.
The target of test [11] is recombinant soluble homotrimeric HA of A/northern shoveler/California/HKWF115/2007 (H6N1) (Influenza A virus A/northern shoveler/California/HKWF115/2007 (H6N1)). Put plainly: HA microarray, BCC supernatant.
For test [12], the target named is recombinant soluble homotrimeric HA of A/California/4/09 (H1N1) (Influenza A virus A/California/04/2009 (H1N1)). As to the kind of experiment: HA microarray, BCC supernatant.
Test [13] deals with recombinant soluble homotrimeric HA, A/Netherlands/219/03 (H7N7) (influenza A virus A/Netherlands/219/03 (H7N7)). Put plainly: microarray, trimeric HA, transfection supernatant.
For test [14], the target named is recombinant soluble homotrimeric HA, A/chicken/Vietnam/NCVD-016/08 (H5N1) (influenza A virus A/chicken/Vietnam/NCVD-016/2008 (H5N1)). As to the kind of experiment: microarray, trimeric HA, transfection supernatant.
Test [15] deals with recombinant soluble homotrimeric HA, A/Hong Kong/156/97 (H5N1) (influenza A virus A/Hong Kong/156/97 (H5N1)). As to the kind of experiment: microarray, trimeric HA, transfection supernatant.
Test [16] addresses recombinant soluble homotrimeric HA, A/Anhui/1/05 (H5N1) (influenza A virus A/Anhui/1/2005 (H5N1)). As to the kind of experiment: microarray, trimeric HA, transfection supernatant.
Test [17] deals with recombinant soluble homotrimeric HA, A/duck/Yangzhou/02/2005 (H8N4) (influenza A virus A/duck/Yangzhou/02/2005 (H8N4)). As to the kind of experiment: microarray, trimeric HA, transfection supernatant.
The target in test [18] is recombinant soluble homotrimeric HA, A/northern shoveler/California/HKWF115/2007 (H6N1) (influenza A virus A/northern shoveler/California/HKWF115/2007 (H6N1)). Put plainly: microarray, trimeric HA, transfection supernatant.
Test [19] concerns the target recombinant soluble homotrimeric HA of A/swine/Ontario/01911-2/99 (H4N6) (Influenza A virus A/Swine/Ontario/01911-2/99 (H4N6)). As to the kind of experiment: HA microarray, BCC supernatant.
Test [20] has as its target recombinant soluble homotrimeric HA of A/Vietnam/1203/04 (H5N1) (Influenza A virus A/Vietnam/1203/2004 (H5N1)). Put plainly: HA microarray, BCC supernatant.
The target in test [21] is recombinant soluble homotrimeric HA, A/Hong Kong/1073/99 (H9N2) (influenza A virus A/Hong Kong/1073/99 (H9N2)). As to the kind of experiment: microarray, trimeric HA, transfection supernatant.
Test [22] has as its target recombinant homotrimeric HA, A/Japan/305/57 H2N2 (Influenza A virus A/Japan/305/57 (H2N2)). Put plainly: trimeric HA microarray; transfection supernatant set 3.
Test [23] concerns the target recombinant homotrimeric HA, A/Vietnam/1203/04 H5N1 (Influenza A virus A/Vietnam/1203/04 (H5N1)). The test is described as above.
Test [24] has as its target recombinant homotrimeric HA, A/swine/Ontario/01911-2/99 H4N6 (Influenza A virus A/swine/Ontario/01911-2/99 (H4N6)). As to the kind of experiment: trimeric HA microarray; transfection supernatant set 5.

In patent publication US20150104459A1 one finds Trimeric HA Binding RLU and Trimeric HA Binding: RLU data, which are given here for six molecules.

“And” between values parts separate entries of the source, which are not always exact repeats. Equal values may be shown once.

B1: TCN-540 (5060_F05) (antibody, V domains shown)
VH: QVQLVQSGGGVVQPGRSLRLSCAASGFTFSSYAMHWVRQAPGKGLEWVAIISYDGNDQYYTDSVKGRFTISRDSSKVYLQMHRLRPEDTAVYYCAKEFETSGYFHGSFDYWGQGILVTVSS
VL: QSALTQPASVSGSPGQSITISCTGTSSDVGGYNYVSWYQQHPGKAPKLLIYEVTNWPSGVSNRFSGSKSGNTASLTISGLQAEDEADYYCSSYAGSSTWVFGGGTRVTVL
For B1, the Trimeric HA Binding RLU came to 117 RLU in [1]; 1970 RLU in [2]; 728 RLU in test [3]; 381 RLU in test [4]; 25 RLU in test [5]; 31 RLU in [6]. The Trimeric HA Binding RLU in test [7] came to 22 RLU; in test [8], 64 RLU; in [9], 2970 RLU; in [10] it was 70 RLU; in test [11], 131 RLU; in test [12] it was 57 RLU. The Trimeric HA Binding RLU in [13] amounted to 4390 RLU; in test [14], 1510 RLU; in test [15] it was 1550 RLU; in test [16], 2190 RLU; in test [17], 6080 RLU; in test [18], 2460 RLU.

B2: TCN-557 (5081_A04) (antibody, V domains shown)
VH: QVQLVQSGAEVKKPGASVKVSCKASGHTFTGYYIHWVRQAPGQGLEWMGWINPDSGATSSAQNFQGRVTMTGDTSSSTAYMELSRLSFDDTAVYYCARVLFTSPFDFWGEGTLVTVSS
VL: QAVVTQEPSLAVSPGGTVTLTCGSSTGAVTRGHYPYWFQQKPGQAPRALIYDSAGNRHSWTPARFSGSLLGGKAALTLSGAQPEDEAEYYCLLSYSGVWVFGGGTKLTVL
In the case of B2, the Trimeric HA Binding RLU in test [1] was 50100 RLU; in [19], 27000 RLU; in [3], 10200 RLU; in [4], 6780 RLU; in test [5], 46000 RLU; in [6] it was 45200 RLU. The Trimeric HA Binding RLU in test [7] is 35300 RLU; in [20], 47300 RLU; in test [8], 40700 RLU; in [9], 43400 RLU; in test [10], 45500 RLU; in [11], 24400 RLU. For the same molecule, the Trimeric HA Binding RLU in test [12] was found to be 17600 RLU; in test [13], 53700 RLU; in [14], 23300 RLU; in test [15], 27100 RLU; in test [16], 20000 RLU; in test [17], 24000 RLU. In [18], the Trimeric HA Binding RLU turned out to be 49600 RLU.

B3: TCN-535 (5246_P19) (antibody, V domains shown)
VH: QVQLVQSGSEVKKPGTSVKVSCTASGSVFTNYGISWVRQAPGQGLEWMGGIIPLFGAAKYAQKFQGRVTITADESTKTVYMELSRLTSKDTAIYFCAKAPRVYEYYFDQWGQGTPVTVSS
VL: EIVLTQSPGTLSLSPGERATLSCRASQSVSSSQLAWYQQKPGQAPRLIIYGASTRATGIPDRFSGSGSGTDFTLTIGRLEPEDFAVFFCQQYSTSPPTFGQGTKVDFK
On to B3, for which the Trimeric HA Binding RLU came to 36600 RLU in [1]; 39400 RLU in test [2]; 5950 RLU in test [19]; 34300 RLU in test [3]; 6880 RLU in test [5]; 45600 RLU in test [6]. Moreover, the Trimeric HA Binding RLU in test [20] turned out to be 4740 RLU; in [8] it was 39400 RLU; in test [9], 26100 RLU; in test [10], 50000 RLU; in test [11], 48200 RLU; in test [12] it was 48600 RLU. The figures for the Trimeric HA Binding RLU in test [21], in test [14] and in test [18] were 21200 RLU, 20900 RLU and 18100 RLU, respectively.

B4: TCN-531 (5091_H13) (antibody, V domains shown)
VH: EVQLVESGGDLVQPGRSLKLSCTGSGFTFGDYGVTWVRQAPGKGLEWVGFIRTRPWGGTADTAASVKGRFTISRDDSKSLAYLQMNSLKTEDTAVYYCCRDAPPNVEVASMTNWYFDLWGRGTLVTVSS
VL: DIQLTQSPSSLSASVGDRVTITCRASQGILNCLAWYQQKPGKVPNLLMYAASTLQSGVPSRFSGSGFGTDFTLTISSLQPEDVATYYCQTYGGVSTFGGGTKVEIR
Turning to B4, the Trimeric HA Binding RLU was determined as 3120 RLU in [1], 7090 RLU in [3] and 410 RLU in test [9]. Moreover, the Trimeric HA Binding: RLU in test [22] came to 489 RLU; in [23] it was 2410 RLU.

B5: TCN-555 (5246_L16) (antibody, V domains shown)
VH: QVQLVQSGAEVKRPGSSVKVSCTASGGIFRKNAISWVRQAPGQGLEWMGGIIAVFNTANYAQKFQNRVKITADESGNTAYMELSSLTSDDTAVYYCASHPKYFYGSGSYPDFWGQGTLVTVSS
VL: QSALTQPRSVSGSPGQSITISCTGGSSDIGASNSVSWYQQHPGKAPKLVIFDVTERPSGVPHRFSGSKSGNTASLTVSGLQPDDEADYFCCAYGGKYLVVFGGGTKVTVL
For B5, the Trimeric HA Binding RLU in [1] turned out to be 18400 RLU; in test [2], 42700 RLU; in test [19] it was 1950 RLU; in test [3] it was 9800 RLU; in [5], 1500 RLU; in test [6], 34500 RLU. The Trimeric HA Binding RLU in test [20] amounted to 876 RLU; in test [8] it was 26400 RLU; in test [9], 2130 RLU; in test [10], 22300 RLU; in test [11], 49500 RLU; in [12], 44900 RLU. Further, the Trimeric HA Binding RLU in [14] came to 35200 RLU; in [15], 36300 RLU; in test [18], 28700 RLU. Also, in test [24], the Trimeric HA Binding: RLU is 4520 RLU.

B6: TCN-523 (5248_A17) (antibody, V domains shown)
VH: QVQLVQSGAEVKKPGSSVKVSCKASGGSFSNYAFSWVRQAPGQGLEWMGGTIPLLGTTNYAQKFQGRVTISADQFTSTAYMELGSLRSEDTAVYYCTRRKMTTAFDSWGQGTLVTVSS
VL: QPVLTQPPSASASLGASVTLTCTLSSAYSNYKVDWYQQRPGKGPRFVMRVGTGGIVGSKGDGIPDRFSVLGSGLNRYLTIKNIQEEDESDYHCGADHGSGSNFVSPYVFGGGTKLTVL
In the case of B6, the Trimeric HA Binding RLU in test [2] was determined as 36500 RLU; in [5] it was 5700 RLU; in test [6] it was 45800 RLU; in test [20] it was 3380 RLU; in [8] it was 37900 RLU; in [9], 5110 RLU. Further, the Trimeric HA Binding RLU is 48900 RLU in [10]; 46900 RLU in test [11]; 34700 RLU in [12]; 24200 RLU and 24600 RLU in test [21]; 18900 RLU and 24000 RLU and 51300 RLU in test [14]; 28400 RLU in test [15]. For the same molecule, in test [18], the Trimeric HA Binding RLU was 29400 RLU and 25100 RLU and 46900 RLU.
